30 sequences from the nanobody polyreactivity screen of Harvey et al. (2022) can be followed below.

This data set can be described thus: yeast display, Sf9 membrane polyspecificity reagent, FACS + sequencing; frameworks hold sequencing errors. Put shortly:
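Nanobodies from a synthetic yeast display library (Saccharomyces cerevisiae BJ5465), induced 36–48 hours with galactose, were stained 1 hour at 4 °C with 10% biotinylated, detergent-solubilized Sf9 membrane reagent, enriched on streptavidin microbeads, then FACS-sorted. Anti-HA (expression) and streptavidin (reagent binding) fluorescence set low and high (top ~1%) gates. Polyreactivity labels come from the gate of origin. Genes were colony-PCR amplified, MiSeq 2 × 250 sequenced and filtered by CDR length.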
In the case of “QVQLVESGGGLVQAGGSLRLSCAASGRIFGQNVMGWYRQAPGKERELVAAITSAGRTYYADSVKGRFTISRDNAKNTVYLQMNSLKPEDTAVYYCAKVVSRKGYGYWGQGTQVTVSS”, the “polyreactivity (PSR sort gate)” value is given as “high polyreactivity”.

With “QVQLVESGGGLVQAGGSLRLSCAASGRIFGRNAMGWYIQAPGTERELVAAISKSGTSTYYADSVKGRFTISRDNAKNTVYLQMNSLKPEDTAVYYCAAALPGYGDYYYWGQGTQVTVSS”, the “polyreactivity (PSR sort gate)” value is reported as “high polyreactivity”. Next, “QVQLVESGGGLVQAGGSLRLSCAASGRIFGRNAMGWYRQAPGKERELVAAISSGGSTYYADSVKGRFTISRDNAKNTVYLQMNSLKPEDTAVYFCAVRGSYYNGGRAFESWGQGTQVTVSS”: “high polyreactivity”; “QVQLVESGGGLVQAGGSLRLSCAASGRIFGRNAMGWYRQAPGKERELVAAISSSGGTYYADSVKGRFTISRDNAKNTVYLQMNSLKPEDTAVYYCAADGPVTGWFYTAIGWVKYDYWGQGTQVTVSS”: “high polyreactivity”. Regarding “QVQLVESGGGLVQAGGSLRLSCAASGRIFGRTAMGWYRKAPGKERELVAAISWRGGNTYYADSVKGRFTISRDNAKNTVYLQMNSLKPEDTAVYYCNTVQYRNEMGYWGQGTQVTVSS”, the “polyreactivity (PSR sort gate)” value is reported as “high polyreactivity”. Regarding “QVQLVESGGGLVQAGGSLRLSCAASGRIFGRYALGWYRQAPGKERELVAAISSSGGSTYFADSVKGRFTISRDNAKNTVYLQMNSLKPEDTAGYYCAADVSAKRYYWGQGTQVTVSS”, the “polyreactivity (PSR sort gate)” value was “high polyreactivity”.

Consider “QVQLVESGGGLVQAGGSLRLSCAASGRIFGRYAMGWYRPAPGKERELVAGISARGGSTYYADSVKGRFTISRDNAKNTVYLQMNSLKPEDTAVYYCAARPYSIVPYDYWGQGTQVTVSS”, for which the “polyreactivity (PSR sort gate)” value is on record as “high polyreactivity”. With “QVQLVESGGGLVQAGGSLRLSCAASGRIFGRYAMGWYRQAPGKERELVAAISSGSSTNYADSLKGRFTISRDNAKNTVYLQMNSLKPEDTAVYYCAVVLYRHWWYDYWGQGTQVTVSS” the entry was “high polyreactivity”; with “QVQLVESGGGLVQAGGSLRLSCAASGRIFGRYAMGWYRQAPGKERELVAAITSSGGNTYYADSVKGRFTISRDNAKNTVYLQMNSLKPEDTAVYYCNALSARSRLQSDYWGQGTQVTVSS”, “high polyreactivity”; with “QVQLVESGGGLVQAGGSLRLSCAASGRIFGRYAMGWYRQAPGKERELVASITRRGGSTYYADSVKGRFTISRDNAKNTVYLQMNSLKPEDTAVYYCAAGGFSWEGDSWGQGTQVTVSS”, “high polyreactivity”. With “QVQLVESGGGLVQAGGSLRLSCAASGRIFGRYAMGWYRQAPGKERELVAVISARGARTYYADSVKGRFTISRDNAKHTVYLQMNSLKPEDTAVYYCAVDQYATDDYWGQGTQVTVSS”, the “polyreactivity (PSR sort gate)” value is “high polyreactivity”. On to “QVQLVESGGGLVQAGGSLRLSCAASGRIFGRYVMGWYRQAPGKERELVAAITSRDDSTYYADSVKGRFTISRDNAKNTVYLQMNSLKPEDTAVYYCAATWGRGYDYWGQGTQVTVSS”, for which the “polyreactivity (PSR sort gate)” value was “high polyreactivity”.

Consider “QVQLVESGGGLVQAGGSLRLSCAASGRIFGSFAMGWYRQAPGKERELVAAITKRGGRTYYADSVKGRFTISRDNANNTVYLQMNSLKPEDTAVYYCRIASYDYWGQGTQVTVSA”, for which the “polyreactivity (PSR sort gate)” value was “high polyreactivity”. With “QVQLVESGGGLVQAGGSLRLSCAASGRIFGSNPMGWYRQAPGKERELVAAISSGGSTSYADSVKGRFTISRDNAKKTVYLQMNSLKPEDTAVYYCAADRFAFYGRYRGPYYYWGQGTQVTVSS” the entry was “high polyreactivity”; with “QVQLVESGGGLVQAGGSLRLSCAASGRIFGSYAMGWYRQAPGKERELVAAITRSGGSTYYADSVKGRFTISRDNAKNTVYLQMNSLKPEDTAVYYCAARYGIRYAYFGRFDYWGQGTQVTVSS”, “high polyreactivity”. As for “QVQLVESGGGLVQAGGSLRLSCAASGRIFGSYAMGWYRQAPGKERELVAGIRSVGSTYYADSVKGRFTISRDNAKNTVYFQMNSLKPEDTAVYYCAAEYFNQNTRQGYDSWGQGSQVTVSS”, the “polyreactivity (PSR sort gate)” value was “low polyreactivity”. Take “QVQLVESGGGLVQAGGSLRLSCAASGRIFGSYAMGWYRQAPGKERELVASIRSGGRTKYADSVKGRFTISRDNAKNTVYLQMNSLKPEVTAVYYCAVPIEWDYGYWGQGTQVTVSS”: the “polyreactivity (PSR sort gate)” value is “low polyreactivity”. For “QVQLVESGGGLVQAGGSLRLSCAASGRIFGSYAMGWYRQAPGKERELVASIRSRGGRTYYADSVKGRFTISRDNAKNTVYLQMNSLKPEDTAVYYCAADVGVYYYSFYYWGQGTQVTVSS”, the “polyreactivity (PSR sort gate)” value is reported as “high polyreactivity”.

As to “QVQLVESGGGLVQAGGSLRLSCAASGRIFGSYTMGWYRQAPGKERELVAAISFSGARTRYADSVKGRFTISRDNAKNTVYLQMNSLKPEDTAVYYCAARFTGGKYDYWGQGTQVTVSS”, the “polyreactivity (PSR sort gate)” value was “high polyreactivity”. Next, “QVQLVESGGGLVQAGGSLRLSCAASGRIFGSYTMGWYRQAPGKERELVAGISRRGGSTYYADSVKGRFTISRDNAKNTVYLQMNSLKPEDTAVYYCAAEVYYFYFYIMDYWGQGTQVTVSS”: “high polyreactivity”; “QVQLVESGGGLVQAGGSLRLSCAASGRIFGTNAMGWYRPAPGKERELVARITISTASTYYADSVKGRFTISRDNAKNTVSLQMNSLKPEDTAVYYCGVRWYIRSRPKVYKYDYWGQGTQVTVSS”: “high polyreactivity”; “QVQLVESGGGLVQAGGSLRLSCAASGRIFGTNAMGWYRQAPGKERELVAAITWRGGSTYYADSVKGRFTISRDNAKNTVYLQMNSLKPVDTAVYYCAKDLVYWYQTIRAGISNYWGQGTQVTVSS”: “low polyreactivity”. As for “QVQLVESGGGLVQAGGSLRLSCAASGRIFGVNAMGWYRQAPGKERELVAAISRSGGSTYYADSVKGRFTISRDNAKNTVYLQMNSRKPEDTAVYYCATDHFYYRQKYWAYYYWGQGTQVTVSS”, the “polyreactivity (PSR sort gate)” value was “high polyreactivity”. With “QVQLVESGGGLVQAGGSLRLSCAASGRIFGVNAMGWYRQAPWKERELVAAINYSGGRTSYADSVKGRFTISRDNAKNTVYLQMNSLKPEDTAVYYCNAGGRRRIFAHSSTGDYWGQGTQVTVSS” the entry was “high polyreactivity”; with “QVQLVESGGGLVQAGGSLRLSCAASGRIFGVNARGWYRQAPGKERELVATITRGGNTNYADSVKGRFTISRDNAKNTVYLQMNSLKPEDTAVYYCNADRYRTFSRLPYGEYEYWGQGTQVTVSS”, “low polyreactivity”. Next, “QVQLVESGGGLVQAGGSLRLSCAASGRIFGVYAKGWYRQAPGKERELVAAISEGGGSTNYADSVKGRFTISRDNAKNTVYLQMNSLKPEETSVYYCAATYLTGVRRYYSWGQGSQVTVSS”: “low polyreactivity”; “QVQLVESGGGLVQAGGSLRLSCAASGRIFGVYAMGCYRQAPGKDRELVAAISSTGGSTYYADSVKGRFTISRDNAKNTVYLQMNSMKPEDTAVYYCEYDYWGQGTQVTVSS”: “low polyreactivity”; “QVQLVESGGGLVQAGGSLRLSCAASGRIFGVYAMGWYRQAAWKERELVAAITRGASTYYADSVKGRFTISRDNAKNTVYLQMNSLKPEDPAVYYCAVSQYRGIYRKYDYWGQGTQVTVSS”: “high polyreactivity”.

Consider “QVQLVESGGGLVQAGGSLRLSCAASGRIFGVYAMGWYRQAPGKERELVADISWSADSTYYADSVKGRFTISRDNAKNTVYLQMNSLKPEDTAVYYCAADALFNVQNSRGYDYWGQGTQVTVSS”, for which the “polyreactivity (PSR sort gate)” value is recorded as “low polyreactivity”. Next, “QVQLVESGGGLVQAGGSLRLSCAASGRIFGWNAMGWYRQAPGKERELVAVIDTGGSTNYADSVKGRFTISRDNAKNTVYLQMNSLKPEDTAVYYCAAVTGIRYFTSEYDYWGQGTQVTVSS”: “low polyreactivity”.
